± gives the standard deviation of the averaged measurements.
B1: library; numbered along this chain (parent)
chain: MNIQIGELAKRTACPVVTIRFYEQEGLLPPPGRSRGNFRLYGEEHVERLQFIRHCRSLDMPLSDVRTLLSYRKRPDQDCGEVNMLLDEHIRQVESRIGALLELKHHLVELREACSGARPAQSCGILQGLSDCVCDTRGTTAHPSD

Tests used:
[1] = variants of: B1; assay: sfGFP reporter fluorescence (15 h) (µM FITC); higher = higher leak; conditions: library round: Round 0; ligand: none
Summary of the method: (§1)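 Readout was endpoint sfGFP fluorescence, converted to µM FITC through standard curves. Reactions were 1 μL of BL21 Star (DE3) PANOx-SP extract with pPbrR-sfGFP reporter, 30 μg/mL GamS and linear PbrR templates normalized to 5 nM, containing 1 µM lead chloride, 30 µM zinc acetate or no metal. Incubation lasted 15 hr at 30 °C, with up to three biological replicates.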

[2] = variants of: B1; assay: sfGFP reporter fluorescence (15 h) (µM FITC); higher = stronger transcriptional activation; conditions: library round: Round 0
Summary of the method: as §1

Variant	sfGFP reporter fluorescence [1]	sfGFP reporter fluorescence ([2]; ligand: 1 µM Pb)	sfGFP reporter fluorescence ([2]; ligand: 30 µM Zn)
M60L P61N	0.25 ± 0.0062	1.01 ± 0.48	3.5 ± 0.044
D64K G128M	0.806 ± 0.04	1.86 ± 0.25	4.98 ± 0.34
D64K G128I	0.371 ± 0.021	1.32 ± 0.067	4.45 ± 0.14
L62Y	0.0599 ± 0.0023	0.0623 ± 0.00052	0.0748 ± 0.0057
L62N	0.061 ± 0.00078	0.0632 ± 0.00078	0.08008 ± 0.00026
L62A	0.06469 ± 0.00026	0.0634 ± 0.0031	0.0839 ± 0.0062
L62C	0.061 ± 0.0018	0.0651 ± 0.0013	0.0995 ± 0.00078
L62S	0.0619 ± 0.0015	0.063 ± 0.001	0.0744 ± 0.001
L62P	0.06194 ± 0.00052	0.06487 ± 0.00052	0.0993 ± 0.0042
L62V	0.0621 ± 0.0018	0.08008 ± 0.00078	0.396 ± 0.0088
L62T	0.0607 ± 0.0034	0.0674 ± 0.0031	0.133 ± 0.0031
L62K	0.0632 ± 0.0013	0.0619 ± 0.001	0.0815 ± 0.0018
L62D	0.06066 ± 0.00026	0.0629 ± 0.0018	0.0649 ± 0.001
L62E	0.06066 ± 0.00026	0.0625 ± 0.0023	0.0658 ± 0.0013
L62H	0.06285 ± 0.00026	0.0638 ± 0.001	0.0918 ± 0.0049
L62Q	0.0597 ± 0.001	0.0608 ± 0.001	0.0819 ± 0.0018
L62G	0.0586 ± 0.001	0.0579 ± 0.0015	0.0614 ± 0.00078
L62I	0.05992 ± 0.00026	0.0883 ± 0.0062	0.88 ± 0.14
L62M	0.066 ± 0.001	0.0962 ± 0.0049	0.533 ± 0.033
L62R	0.06377 ± 0.00052	0.0643 ± 0.0013	0.0704 ± 0.0047
L62F	0.0599 ± 0.0023	0.0652 ± 0.0015	0.168 ± 0.0039
L62W	0.0616 ± 0.0042	0.0603 ± 0.0034	0.0665 ± 0.0013

Variant	sfGFP reporter fluorescence [1]	sfGFP reporter fluorescence ([2]; ligand: 1 µM Pb)	sfGFP reporter fluorescence ([2]; ligand: 30 µM Zn)
M60L P61N L107C	1.39 ± 0.39	2.42 ± 0.21	5.07 ± 0.26
M60L P61N D64K L107C	3.0399 ± 0.0023	4.3 ± 0.33	4.24 ± 0.28
P61N G128I	0.1886 ± 0.0018	0.682 ± 0.092	3.06 ± 0.22
P61N G128M	0.481 ± 0.039	1.59 ± 0.34	4.72 ± 0.4
P61N K104V L107C	0.283 ± 0.021	1.28 ± 0.11	2.54 ± 0.079
M60L D64K G128M	3.44 ± 0.06	4.33 ± 0.25	4.46 ± 0.12
M60L D64K G128I	2.06 ± 0.074	3.47 ± 0.32	4.32 ± 0.22
P61N K104V	0.121 ± 0.016	0.385 ± 0.007	1.77 ± 0.47
M60L P61N D64K G128M	1.99 ± 0.056	3.91 ± 0.25	4.405 ± 0.006
M60L P61N D64K G128I	0.944 ± 0.037	3.29 ± 0.078	3.77 ± 0.81
R53A	0.0614 ± 0.0018	0.06652 ± 0.00026	0.487 ± 0.074
S57A	0.059 ± 0.0015	0.0575 ± 0.001	0.184 ± 0.011
M60L P61N K104V L107C	0.535 ± 0.018	1.66 ± 1.4	3.35 ± 0.1
P61N D64K K104V L107C	0.676 ± 0.011	2.12 ± 0.066	2.74 ± 0.35
D59A	0.0693 ± 0.0036	0.0755 ± 0.001	0.291 ± 0.014
M60L D64K	0.916 ± 0.074	1.99 ± 0.24	4.629 ± 0.03
D64K K104V L107C G128M	3.13 ± 0.25	3.98 ± 0.082	3.57 ± 0.84
D64K K104V L107C G128I	2.19 ± 0.12	4.16 ± 0.23	3.35 ± 0.64
D64K K104V L107C	2.05 ± 0.034	4.21 ± 0.2	4.1 ± 0.055
H54A	0.05626 ± 0.00026	0.0552 ± 0.0029	0.07074 ± 0.00052
M60L L107C	1.01 ± 0.029	1.43 ± 0.057	3.93 ± 0.055
M60L G128M	0.939 ± 0.012	2.69 ± 0.78	4.69 ± 0.071

Variant	sfGFP reporter fluorescence [1]	sfGFP reporter fluorescence ([2]; ligand: 1 µM Pb)	sfGFP reporter fluorescence ([2]; ligand: 30 µM Zn)
M60L G128I	0.336 ± 0.012	1.4 ± 0.016	3.625 ± 0.027
M60L K104V	0.255 ± 0.0057	1.1 ± 0.067	3.17 ± 0.1
M60L D64K L107C	5.66 ± 0.2	5.25 ± 0.066	5.27 ± 0.24
P61N D64K L107C	2.69 ± 0.12	3.57 ± 0.046	3.69 ± 0.12
P61Y	0.0638 ± 0.0015	0.0757 ± 0.0018	0.148 ± 0.0023
P61H	0.0658 ± 0.00078	0.117 ± 0.0021	0.797 ± 0.015
P61A	0.0665 ± 0.00078	0.108	1.22 ± 0.092
P61C	0.0755 ± 0.001	0.193 ± 0.0083	1.78 ± 0.031
P61S	0.0755 ± 0.00052	0.146 ± 0.0036	2.15 ± 0.052
P61G	0.0819 ± 0.0029	0.2936 ± 0.0021	2.2 ± 0.053
P61Q	0.0755 ± 0.0015	0.148 ± 0.0065	1.07 ± 0.024
P61E	0.0693	0.0991 ± 0.0049	0.338 ± 0.042
P61F	0.0608 ± 0.0031	0.0651 ± 0.0023	0.09382 ± 0.00052
P61I	0.0553 ± 0.0067	0.06414 ± 0.00052	0.112 ± 0.00026
P61N	0.07825 ± 0.00026	0.13 ± 0.078	1.74 ± 0.049
P61L	0.0638 ± 0.0026	0.0823 ± 0.0039	0.191 ± 0.0057
P61D	0.0729	0.123 ± 0.0044	0.709 ± 0.02
P61M	0.0682 ± 0.001	0.1424 ± 0.0013	0.714 ± 0.039
P61K	0.068 ± 0.00078	0.107 ± 0.0031	1.6 ± 0.1
P61W	0.061 ± 0.0039	0.06395 ± 0.00026	0.104 ± 0.0018
P61V	0.0651 ± 0.0013	0.09 ± 0.0029	0.302
P61T	0.0865 ± 0.001	0.211 ± 0.006	1.94 ± 0.03

Variant	sfGFP reporter fluorescence [1]	sfGFP reporter fluorescence ([2]; ligand: 1 µM Pb)	sfGFP reporter fluorescence ([2]; ligand: 30 µM Zn)
P61R	0.0715 ± 0.0031	0.1231 ± 0.00052	1.42 ± 0.021
M60L K104V L107C	1.11 ± 0.099	3.04 ± 0.88	2.76 ± 0.63
D64A	0.0874 ± 0.0065	0.158 ± 0.049	2.22 ± 0.24
D64C	0.0848 ± 0.032	0.335 ± 0.072	2.45 ± 0.3
D64I	0.256 ± 0.028	0.837 ± 0.025	3.78 ± 0.41
D64K	0.154 ± 0.049	0.382 ± 0.023	3.306 ± 0.03
D64H	0.0682 ± 0.001	0.12 ± 0.0054	1.81 ± 0.088
D64G	0.06322 ± 0.00026	0.121 ± 0.0054	1.26 ± 0.049
D64F	0.267 ± 0.014	1.01 ± 0.054	3.86 ± 0.28
D64E	0.0581 ± 0.0018	0.061 ± 0.0013	0.1552 ± 0.00078
P61N L107C G128I	1.6 ± 0.35	2.91 ± 0.12	3.99 ± 0.4
P61N L107C G128M	3.31 ± 0.13	4.37 ± 0.48	5.17 ± 0.11
M60L P61N D64K K104V G128I	0.345 ± 0.029	0.915 ± 0.075	2.39 ± 0.063
P61N D64K G128I	0.452 ± 0.022	1.46 ± 0.23	3.51 ± 0.073
P61N D64K G128M	1.01 ± 0.069	2.17 ± 0.97	4.15 ± 0.24
M60L P61N D64K K104V	0.366 ± 0.0044	1.11 ± 0.035	3.03 ± 0.15
P61N K104V G128I	0.133 ± 0.0086	0.341 ± 0.0067	1.53 ± 0.083
P61N K104V G128M	0.395 ± 0.015	1.034 ± 0.006	3.13 ± 0.069
M60L P61N K104V	0.153 ± 0.0062	0.413 ± 0.017	1.56 ± 0.039
M60L P61N L107C G128I	1.87 ± 0.42	3.58 ± 0.081	4.97 ± 0.23
M60L P61N L107C G128M	3.38 ± 0.74	4.14 ± 0.57	5.5 ± 0.2
D64K K104V	0.4361 ± 0.0031	1.44 ± 0.053	4.041 ± 0.031

— the supplement of paper PMC12783771
